Read-outs that look alike come from different tables or passages of the source.
Columns and labels:
[1] = biological target: T1, Claudin 18.2 (CLDN18.2), expressed on CHOS-CLDN 18.2 / HEK293-CLDN 18.2 / HCC827-CLDN 18.2 cells (human, UniProt P56856-2 1-261); experiment: FACS, CHOS-CLDN18.2 cells, 5 µg/ml
T1 construct: whole, on cells; The species is not repeated for the CHOS-CLDN 18.2 cells; also called claudin-18A2
Description: (§1) The initial concentration of the antibody was 20 μg/ml, it was diluted at 1:4, and incubated at 4° C. for 60 min.

[2] = biological target: T1, Claudin 18.2 (CLDN18.2), expressed on …; experiment: FACS, CHOS-CLDN18.2 cells, 0 µg/ml (background)
Description: as §1

[3] = biological target: T1, Claudin 18.2 (CLDN18.2), expressed on …; experiment: FACS, CHOS-CLDN18.2 cells
Description: as §1

[4] = biological target: T1, Claudin 18.2 (CLDN18.2), expressed on …; experiment: FACS, CHOS-CLDN18.2 cells, 0.313 µg/ml
Description: as §1

[5] = biological target: T1, Claudin 18.2 (CLDN18.2), expressed on …; experiment: FACS, CHOS-CLDN18.2 cells; remark: listed apart in the source
Description: as §1

[6] = biological target: T1, Claudin 18.2 (CLDN18.2), expressed on …; experiment: FACS, CHOS-CLDN18.2 cells, 20 µg/ml
Description: as §1

[7] = biological target: T1, Claudin 18.2 (CLDN18.2), expressed on …; experiment: FACS, CHOS-CLDN18.2 cells, 5 µg/ml; remark: listed apart in the source
Description: as §1

[8] = biological target: T1, Claudin 18.2 (CLDN18.2), expressed on …; experiment: FACS, CHOS-CLDN18.2 cells, 0.313 µg/ml; remark: listed apart in the source
Description: as §1

[9] = biological target: T1, Claudin 18.2 (CLDN18.2), expressed on …; experiment: FACS, CHOS-CLDN18.2 cells, 0 µg/ml (background); remark: listed apart in the source
Description: as §1

[10] = biological target: T1, Claudin 18.2 (CLDN18.2), expressed on …; experiment: FACS, CHOS-CLDN18.2 cells, 0.313 µg/ml; remark: listed apart in the source
Description: as §1

[11] = biological target: T1, Claudin 18.2 (CLDN18.2), expressed on …; experiment: FACS, CHOS-CLDN18.2 cells, 0.078 µg/ml
Description: as §1

[12] = biological target: T1, Claudin 18.2 (CLDN18.2), expressed on …; experiment: FACS, CHOS-CLDN18.2 cells, 5 µg/ml; remark: listed apart in the source
Description: as §1

[13] = biological target: T1, Claudin 18.2 (CLDN18.2), expressed on …; experiment: FACS, CHOS-CLDN18.2 cells, 20 µg/ml; remark: listed apart in the source
Description: as §1

B1: QP024025 (antibody, human IgG1, V domains shown)
VH: QVQLQQPGAELVRPGASVKLSCKASGYTFTSYWINWVKQRPGQGLEWIGNIYPSDSYTNYNQKFKDKATLTVDKSSSTAYMQLSSPTSEDSAVYYCTRSWRGNSFDYWGQGTTLTVSS
VL: DIVMTQSPSSLTVTAGEKVTMSCKSSQSLLNSGNQKNYLTWYQQKPGQPPKLLIYWASTRESGVPDRFTGSGSGTDFTLTISSVQAEDLAVYYCQNDYSYPFTFGSGTKLEIK
notes: also called IMAB362; 175D10(IMAB362)
- FACS reading [1]: 105000
- FACS reading [2]: 732
- EC50 [3]: 0.27 µg/mL
- max [3]: 88600
- FACS reading [4]: 51000
- EC50 [5]: 0.27 µg/mL
- max [5]: 88600
- FACS reading [6]: 72300
- FACS reading [7]: 105000
- FACS reading [8]: 51000
- FACS reading [9]: 732
- FACS reading [10]: 51000
- FACS reading [11]: 18200
- FACS reading [12]: 105000
- FACS reading [13]: 72300

— patent publication US20230183352A1 (published 2023)
